Reference: patent publication US20070253966A1

Molecular target: human GLP-1 receptor (human) (UniProt P43220)
Test: cell-based or functional assay

Chain of UniProt P43220 (P43220 24-463): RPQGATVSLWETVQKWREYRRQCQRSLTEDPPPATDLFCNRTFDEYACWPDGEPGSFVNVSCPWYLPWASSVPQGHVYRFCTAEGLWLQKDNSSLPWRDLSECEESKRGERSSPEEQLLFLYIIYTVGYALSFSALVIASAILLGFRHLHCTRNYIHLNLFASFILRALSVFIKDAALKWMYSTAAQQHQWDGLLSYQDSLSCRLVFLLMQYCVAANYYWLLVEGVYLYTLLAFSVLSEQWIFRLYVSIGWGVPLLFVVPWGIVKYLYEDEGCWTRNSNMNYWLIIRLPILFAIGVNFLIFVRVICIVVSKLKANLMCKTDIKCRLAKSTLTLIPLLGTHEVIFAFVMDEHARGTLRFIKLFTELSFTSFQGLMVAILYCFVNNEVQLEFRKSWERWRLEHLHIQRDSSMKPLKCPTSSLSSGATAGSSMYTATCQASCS

| Activity (EC50 relative to Val^8-GLP-1(7-37)OH), CRE-BLAM beta-lactamase reporter in HEK-293 cells expressing human GLP-1 receptor [%] | Activity (EC50 relative to Val^8-GLP-1(7-37)OH), CRE-Luciferase reporter in HEK-293 cells stably expressing human GLP-1 receptor [%] | Activity (EC50 relative to Val^8-GLP-1(7-37)OH, corrected for 2-fold molarity of the dimer), CRE-Luciferase reporter in HEK-293 cells stably expressing human GLP-1 receptor [%] | Substance |
| --- | --- | --- | --- |
| 100 | 100 | – | Val^8-GLP-1(7-37)OH (from UniProt P01275 21-180) (peptide) |
| 468 | – | 1120 | Gly^8-Glu^22-GLP-1(7-37)-1L-IgG4 (S228P, F234A, L235A) (from UniProt P01275 98-128) (Fc fusion) |
| 314 | – | 595 | Gly^8-Glu^22-GLP-1(7-37)-1.5L-IgG4 (S228P, F234A, L235A) (from UniProt P01275 98-128) (Fc fusion) |
| 301 | – | 535 | Gly^8-Glu^22-GLP-1(7-37)-2L-IgG4 (S228P, F234A, L235A) (from UniProt P01275 98-128) (Fc fusion) |
